The data set is described as follows: soluble on expression in E. coli; label from the status in PepcDB or PDB records.
For “MGSDKIHHHHHHMTTSYAKIEITGTLTVLTGLQIGAGDGFSAIGAVDKPVVRDPLSRLPMIPGTSLKGKVRTLLSRQYGADTETFYRKPNEDHAHIRRLFGDTEEYMTGRLVFRDTKLTNKDDLEARGAKTLTEVKFENAINRVTAKANLRQMERVIPGSEFAFSLVYEVSFGTPGEEQKASLPSSDEIIEDFNAIARGLKLLELDYLGGSGTRGYGQVKFSNLKARAAVGALDGSLLEKLNHELAAV”, the “soluble on expression in E. coli” value is “not soluble”.

Regarding “MSTDKITFLLNWQPTPYHIPIFLAQTKGYFKEQGLDMAILEPTNPSDVTELIGSGKVDMGLKAMIHTLAAKARGFPVTSVASLLDEPFTGVLYLKGSGITEDFQSLKGKKIGYVGEFGKIQIDELTKHYGMKPEDYTAVRCGMNVAKYIIEGKIDAGIGIECMQQVELEEYLAKQGRPASDAKMLRIDKLACLGCCCFCTVLYICNDEFLKKNPEKVRKFLKAIKKATDYVLADPVKAWKEYIDFKPQLNNDLSYKQYQRCYAYFSSSLYNVHRDWKKVTGYGKRLAILPPDYVSNYTNEYLSWPEPEEVSDPLEAQRLMAIHQEKCRQEGTFKRLALPA”, the “soluble on expression in E. coli” value was “soluble”.

Regarding “MSLHSYDYDAIVIGSGPGGEGAAMGLVKQGARVAVIERYQNVGGGCTHWGTIPSKALRHAVSRIIEFNQNPLYSDHSRLLRSSFADILNHADNVINQQTRMRQGFYERNHCEILQGNARFVDEHTLALDCPDGSVETLTAEKFVIACGSRPYHPTDVDFTHPRIYDSDSILSMHHEPRHVLIYGAGVIGCEYASIFRGMDVKVDLINTRDRLLAFLDQEMSDSLSYHFWNSGVVIRHNEEYEKIEGCDDGVIMHLKSGKKLKADCLLYANGRTGNTDSLALQNIGLETDSRGQLKVNSMYQTAQPHVYAVGDVIGYPSLASAAYDQGRIAAQALVKGEANAHLIEDIPTGIYTIPEISSVGKTEQQLTAMKVPYEVGRAQFKHLARAQIVGMNVGTLKILFHRETKEILGIHCFGERAAEIIHIGQAIMEQKGGGNTIEYFVNTTFNYPTMAEAYRVAALNGLNRLFEGHHHHHH”, the “soluble on expression in E. coli” value was “soluble”.

As to “MTESVFAVVVTHRRPDELAKSLDVLTAQTRLPDHLIVVDNDGCGDSPVRELVAGQPIATTYLGSRRNLGGAGGFALGMLHALAQGADWVWLADDDGHAQDARVLATLLACAEKYSLAEVSPMVCNIDDPTRLAFPLRRGLVWRRRASELRTEAGQELLPGIASLFNGALFRASTLAAIGVPDLRLFIRGDEVEMHRRLIRSGLPFGTCLDAAYLHPCGSDEFKPILCGRMHAQYPDDPGKRFFTYRNRGYVLSQPGLRKLLAQEWLRFGWFFLVTRRDPKGLWEWIRLRRLGRREKFGKPGGSA”, the “soluble on expression in E. coli” value was “soluble”.

Regarding “MADLLNVLKDKLSGKNVKIVLPEGEDERVLTAATQLQATDYVTPIVLGDETKVQSLAQKLDLDISNIELINPATSELKAELVQSFVERRKGKATEEQAQELLNNVNYFGTMLVYAGKADGLVSGAAHSTGDTVRPALQIIKTKPGVSRTSGIFFMIKGDEQYIFGDCAINPELDSQGLAEIAVESAKSALSFGMDPKVAMLSFSTKGSAKSDDVTKVQEAVKLAQQKAEEEKLEAIIDGEFQFDAAIVPGVAEKKAPGAKLQGDANVFVFPSLEAGNIGYKIAQRLGGYDAVGPVLQGLNSPVNDLSRGCSIEDVYNLSIITAAQALQ”, the “soluble on expression in E. coli” value is “not soluble”.

Turning to “ASEEEKAWLMASRQQLAKETSNFGFSLLRKISMRHDGNMVFSPFGMSLAMTGLMLGATGPTETQIKRGLHLQALKPTKPGLLPSLFKGLRETLSRNLELGLTQGSFAFIHKDFDVKETFFNLSKRYFDTECVPMNFRNASQAKRLMNHYINKETRGKIPKLFDEINPETKLILVDYILFKGKWLTPFDPVFTEVDTFHLDKYKTIKVPMMYGAGKFASTFDKNFRCHVLKLPYQGNATMLVVLMEKMGDHLALEDYLTTDLVETWLRNMKTRNMEVFFPKFKLDQKYEMHELLRQMGIRRIFSPFADLSELSATGRNLQVSRVLQRTVIEVDERGTEAVAGILSEITAYSMPPVIKVDRPFHFMIYEETSGMLLFLGRVVNPTLL”, the “soluble on expression in E. coli” value is reported as “soluble”.

“MQKIKSLMTRQGLKSPQESLSDLGAIESLRVPGKEEFRELREQPSDPQAEQELINSIEQVYFSVDSFDIVKYELEKLPPVLNLQELEAYRDKLKQQQAAVSKKVADLILEKQPAYVKELERVTSLQTGLQLAAVICTNGRRHLNIAKEGFTQASLGLLANQRKRQLLIGLLKSLRTIKTLQRTDVRLSEMLEEEDYPGAIQLCLECQKAASTFKHYSCISELNSKLQDTLEQIEEQLDVALSKICKNFDINHYTKVQQAYRLLGKTQTAMDQLHMHFTQAIHNTVFQVVLGYVELCAGNTDTKFQKLQYKDLCTVCSDLITIHISLL”: the “soluble on expression in E. coli” value is recorded as “soluble”.

As for “MAHHHHHHMFISEDLDPEALKNEANIKWKEVIGKGNMEEANIIWRQALKECIKYSMRGIPTNKNRDMQISLRLNLSLYHYKKKEYSDCINQCNIIIDNLLNLEEMLQYYNMGDEEENKKESNNNDGDKGDHISDDKGDHMSDDKGDHKDDDKGDHMSDDKGDHKDDDKGDHMSDDKGDHKDDDKGDHMSDDKDKSNVNLREKKYIIKKDILIKIFLRRASSFLCLQEFNKCNEDLGIIKKLENNDAEAATLEKRMIIEKKDYERKQKELYKKMCNSK”, the “soluble on expression in E. coli” value is “not soluble”.

On to “MGSDKIHHHHHHMAANRFNGFTDYGIGIGLRIPHYRHILDNKPVVDWFEIISENYMIDGGRPLAVLDAILEQYRVVQHGVSMYFGSVDPLNREHLKRLKNLTRRTKTPWLTDHLCWGSVDGRYTHDLMPLPYTWEAIDVTVAKIKQVRDYLEIPVAVENVSSYAEFHESEMTEWEFLNEVVERADCGILLDVNNIYVSSMNHSFDPHVYVDSVPAERVAQIHIAGHSKYEKYILDTHDHPVIDPVWQLYAHAIRRCGPTATLLEWDDHIPSFEEVHNEALKAKKFLAENAEPVEKKIAAAEARV”, for which the “soluble on expression in E. coli” value is given as “not soluble”.

Turning to “MITTFETILDKIKAHQTIIIHRHQNPDPDALGSQAGLKEIIAQNFPDKKVLMTGFDEPSLAWISQMDQVTDKDYKEALVIITDTANRPRIDDERYTLGKCLIKIDHHPNDDVYGDFYYVDTSASSASEIIADFAFSQNLTLSDKAAKLLYTGIVGDTGRFLYASTTSKTLSIASQLRHFEFDFAAISRQMDSFPLKIAKLQSYVFEHLTIDESGAAYVLVSQETLKHFDVTLAESSAIVCAPGKIDNVQAWAIFVELTDGNYRVRMRSKEKIINGIAKRHGGGGHPLASGANSANLEENQAIFRELIAVCQEILEHHHHHH”, the “soluble on expression in E. coli” value was “soluble”.

On to “SPNALDISRTYPTLHVLIQFNHRGLEVRLFRHGQFWAETRADVILRSKTKQVSFLSNGNYPSMDSRAPWNPWKNTYQAVLRAEPCRVTMDIYYKRVRPFRLPLVQKEWPVREENVFGLYRIFNAHYAGYFADLLIHDIETNPAPFMFRPRKQVFQTQGAAVSSMAQTLLPNDLASKAMGSAFTALLDANEDAQKAMKIIKTLSSLSDAWENVKETLNNPEFWKQLLSRCVQLIAGMTIAVMHPDPLTLLCLGTLTAAEITSQTSLCEEIAAKFKTIFITPPPRFPTISLFQQQ”, for which the “soluble on expression in E. coli” value was “not soluble”.

“MIVSILGAGAMGSALSVPLVDNGNEVRIWGTEFDTEILKSISAGREHPRLGVKLNGVEIFWPEQLEKCLENAEVVLLGVSTDGVLPVMSRILPYLKDQYIVLISKGLIDFDNSVLTVPEAVWRLKHDLRERTVAITGPAIAREVAKRMPTTVVFSSPSESSANKMKEIFETEYFGVEVTTDIIGTEITSALKNVYSIAIAWIRGYESRKNVEMSNAKGVIATRAINEMAELIEILGGDRETAFGLSGFGDLIATFRGGRNGMLGELLGKGLSIDEAMEELERRGVGVVEGYKTAEKAYRLSSKINADTKLLDSIYRVLYEGLKVEEVLFELATFK”: the “soluble on expression in E. coli” value is “soluble”.

As for “MDLQHWQAQFENWLKNHHQHQDAAHDVCHFRRVWATAQKLAADDDVDMLVILTACYFHDIVSLAKNHPQRQRSSILAAEETRRLLREEFEQFPAEKIEAVCHAIAAHSFSAQIAPLTTEAKIVQDADRLEALGAIGLARVFAVSGALGVALFDGEDPFAQHRPLDDKRYALDHFQTKLLKLPQTMQTARGKQLAQHNAHFLVEFMAKLSAELAGENEGVDHKVIDAFSSAGLEHHHHHH”, the “soluble on expression in E. coli” value is listed as “soluble”.

Turning to “GFNPIIGTGISYKLSKKWSLAAEAFYSRRKVTYTSEVKDQNYIDRNTIIINNNPVTFEVSTTFTGTTKGEFDIHYLEFPLLAQYAIGNNWQIHAGMYYSWAFSKTNKGTATGIIGRTDISNPNTVTDKEYNYSKEVNSRYYGFVAGAQYQLSPAVALDLRATYSCKSLYKEDWEGVPYTLKDLYVQFTVKYFFIRAKD”, the “soluble on expression in E. coli” value is “not soluble”.

For the sequence “MPKGNKKPNEKKEELEKFAKELQGSDSDEDAVVIEQPTVEPKLPQNDSSSSNKIVLSQAEKDLLRTELDKTEEEISTLKQVLSARQKHAAELKRKLGLTPFSELSQDINRSLKTVTDTDAYQKTAEVAAATSDTVKEKWNDMRNSSLFKSFESKLGSALNNAKMAASTSIDHLAGAARGPSQTGTPVAEEAKPIS”, the “soluble on expression in E. coli” value is listed as “soluble”.

For “MHILVVGVDYKSAPIEIREKVSFQPNELAEAMVQLKEEKSILENIIVSTCNRTEIYAVVDQLHTGRYYIKKFLADWFQLSKEELSPFLTFYESDAAVEHLFRVACGLDSMVIGETQILGQVRDSFKTAQQEKTIGTIFNELFKQAVTVGKRTHAETDIGSNAVSVSYAAVELAKKIFGNLSSKHILILGAGKMGELAAENLHGQGIGKVTVINRTYLKAKELADRFSGEARSLNQLESALAEADILISSTGASEFVVSKEMMENANKLRKGRPLFMVDIAVPRDLDPALNDLEGVFLYDIDDLEGIVEANMKERRETAEKVELLIEETIVEFKQWMNTLGVVPVISALREKALAIQSETMDSIERKLPHLSTREKKLLNKHTKSIINQMLRDPILKVKELAADADSEEKLALFMQIFDIEEAAGRQMMKTVESSQKVHSFKKAESKAGFSPLVSE”, the “soluble on expression in E. coli” value is listed as “not soluble”.

In the case of “MMQTSRPTLQLLTASACYRDDPTALFHQLCGARPATLLLESAEVDNKQNLKSLLVIDSALRITALGQTVTLEALTRNGASLLPLLDASLPTEVDIQVRPNGRELTFPLINEVQDEDSRLQSLSVFDALRQLLTLVNTPLAEREALFLGGLFAYDLVAGFENLPPLRQDQRCPDFCFYLAETLLVLDHQHRSTRLQASLFTPDSSEYQRLATRLEQLSHQLQQAPHPIPATSVPEMALQCNQSDEEYCNVVSELQVAIREGEIFQVVPSRRFTLPCPSPLAAYQTLKDHNPSPYMFFMQDNDFSLFGASPESALKYDASNRQIEIYPIAGTRPRGRRPNGELDRDLDSRIELEMRTDHKEMAEHLMLVDLARNDLARICEPGSRYVADLTKVDRYSFVMHLVSRVIGTLRQDLDVLHAYQACMNMGTLSGAPKVRAMQLIASNEGSRRGSYGGAVGYFTAHGDLDTCIVIRSAYVEDGIATVQAGAGVVLDSVPQAEADETRNKARAVLRAIATAHHAKEIF”, the “soluble on expression in E. coli” value is listed as “not soluble”.

For “MSIPINFNNLKYLLNDMRNKNRIIEAFPFNYNQRQYAVILTRYKPDEPRPDDYAQAKLEFFNLNSENSIFAYADFYEVHFKSATDFINFFKINVQAGAAKIREIFQSFSNLFADFIPTQTKKDLDIIYKKIVATRLEPNSPNTIYCYDVRRNGKDKAGKPNRRSVENSEKAKILRPELYEKFKADSNYSFFFSDNPSDEKTDAEIIREVTNRQ”, the “soluble on expression in E. coli” value was “not soluble”.

For the sequence “MPAPLYGADDPLRCSGNSVSEVLDKFRKKYDLIMSLPQETKEEKEFRHCIWLAEKEEREQIYQTSIRPFRKATYTHFPEIDPRLRNYRSRYGAISND”, the “soluble on expression in E. coli” value was “not soluble”.

In the case of “SDEDGLPLMGSGIDLTKVPAIQQKRTVAFLNQFVVHTVQFLNRFSAVCEEKLADLSLRIQQIETTLNILDAKLSSIPGLEDVTVEVSPLNVTAVTNGSHSETTSEQTQQNSTQDSGAQESEAPSENVLTVAKDPRYARYRKMVQVGVPVMAIRDKMISEGLDPELLEKPDAPVPNGESKRAVEESSDSDSSFSD”, the “soluble on expression in E. coli” value was “soluble”.

Source of the values: the DeepSol protein solubility set.
